Reference: patent US20090118178A1 (7TM PHARMA A S, published 2009)
Where no end group is shown, it is not given here.

T1: human Y1 receptor (human, UniProt P25929 1-384)
T1 sequence (looked up): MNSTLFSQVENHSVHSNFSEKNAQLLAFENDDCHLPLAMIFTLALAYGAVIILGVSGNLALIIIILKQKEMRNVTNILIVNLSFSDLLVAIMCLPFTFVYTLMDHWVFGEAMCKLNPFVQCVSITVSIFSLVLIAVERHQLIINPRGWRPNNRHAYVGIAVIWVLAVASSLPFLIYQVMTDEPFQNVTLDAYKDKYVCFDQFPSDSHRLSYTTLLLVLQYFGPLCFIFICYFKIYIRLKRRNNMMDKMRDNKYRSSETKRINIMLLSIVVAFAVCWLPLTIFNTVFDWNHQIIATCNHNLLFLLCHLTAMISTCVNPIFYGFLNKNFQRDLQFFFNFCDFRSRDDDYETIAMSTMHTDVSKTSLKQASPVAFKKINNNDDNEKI

T2: human Y2 receptor (human, UniProt P49146 1-381)
T2 sequence (looked up): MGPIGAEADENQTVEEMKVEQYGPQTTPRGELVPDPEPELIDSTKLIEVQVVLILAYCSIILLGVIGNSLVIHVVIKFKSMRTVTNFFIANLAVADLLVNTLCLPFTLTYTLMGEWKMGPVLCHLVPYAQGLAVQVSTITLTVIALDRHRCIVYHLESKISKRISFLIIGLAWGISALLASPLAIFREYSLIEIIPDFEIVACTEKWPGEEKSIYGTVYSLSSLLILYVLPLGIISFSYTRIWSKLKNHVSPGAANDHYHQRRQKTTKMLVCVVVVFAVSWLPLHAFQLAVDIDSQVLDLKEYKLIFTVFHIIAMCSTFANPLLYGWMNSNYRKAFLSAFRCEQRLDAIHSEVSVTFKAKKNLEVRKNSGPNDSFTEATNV


Legend:
Assay in all cases: cell-based or functional assay
human Y1 receptor = biological target: T1, human Y1 receptor
human Y4 receptor = human Y4 receptor (human, UniProt P50391 1-375)
human Y2 receptor = biological target: T2, human Y2 receptor

Chain of human Y4 receptor (P50391 whole entry): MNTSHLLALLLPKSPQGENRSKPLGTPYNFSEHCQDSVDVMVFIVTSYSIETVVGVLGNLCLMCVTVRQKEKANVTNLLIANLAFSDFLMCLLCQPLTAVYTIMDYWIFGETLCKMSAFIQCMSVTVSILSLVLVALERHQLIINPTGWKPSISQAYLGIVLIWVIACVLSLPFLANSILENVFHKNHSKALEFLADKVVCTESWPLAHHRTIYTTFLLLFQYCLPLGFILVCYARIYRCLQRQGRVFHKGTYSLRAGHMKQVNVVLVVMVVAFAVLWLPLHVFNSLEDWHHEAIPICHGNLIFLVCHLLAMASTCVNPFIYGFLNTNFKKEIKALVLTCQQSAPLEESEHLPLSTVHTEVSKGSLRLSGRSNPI

Binder | EC50, inositol phosphate turnover in transfected COS-7 cells (hY1 potency assay) (human Y1 receptor) | EC50, inositol phosphate turnover in transfected COS-7 cells (hY4 potency assay) (human Y4 receptor) | EC50, inositol phosphate turnover in transfected COS-7 cells (hY2 potency assay) (human Y2 receptor)
PLEPVYPGENATPEQMAQYAADLRRYINMLTRPRY-NH2 [[Glu10]PP2-36] | 564 nM | 0.91 nM | > 1000 nM
PLEPVYPGENATPEQLAQYAADLRRYINTLTRPRY-NH2 [[Glu10, Leu17, Thr30]PP2-36] | > 1000 nM | 1.07 nM | > 1000 nM
PLEPVYPGDNATPEQMAQYAADLRRYINNLTRPRY-NH2 [[Asn30]PP2-36] | > 1000 nM | 3.05 nM | > 1000 nM
PLEPVYPGDNATPEQMAQYAADLRRYINALTRPRY-NH2 [[Ala30]PP2-36] | > 1000 nM | 1.04 nM | > 1000 nM
PLEPVYPGDNATPEQMAQYAADLRRYINQLTRPRY-NH2 [[Gln30]PP2-36] | > 1000 nM | 0.99 nM | > 1000 nM
PLEPVYPGDNATPEQMAQYAADLRRYINTLTRPRY-NH2 [[Thr30]PP2-36] | > 1000 nM | 1.07 nM | > 1000 nM
